Data on two molecules can be found in paper PMC7823470, “Arabidopsis Plant Natriuretic Peptide Is a Novel Interactor of Rubisco Activase” (Life, 2020).

Assay [1] deals with A. thaliana (Col-0) mesophyll cell protoplasts. Kind of assay: Mesophyll cell protoplast (MCP) volume assay. As to conditions: MCPs in 0.4 M mannitol, 20 min; 100 nM peptide or 1 μg mL^−1 rAtPNP-A; confocal microscopy, n = 50. In kind it is cell-based, Arabidopsis thaliana. From the text:
Figure 1 Biologically active peptide containing the active region of AtPNP-A binds to RCA. (a) Schematics showing domain organization of AtPNP-A and the amino acid sequence of N-terminally biotinylated peptides used in the affinity-based experiments. pAtPNP-A—a peptide containing the active site of AtPNP-A; pScr—the corresponding scrambled peptide; SP—signal peptide. Cysteine residues forming a disulfide bond are underlined. (b) Assaying biological activity of the pAtPNP-A and purified recombinant AtPNP-A (rAtPNP-A). A. thaliana (Col-0) mesophyll cell protoplasts suspended in 0.4 M mannitol were treated with either water, or 100 nM pScr (negative control), or with 100 nM pAtPNP-A, or with 1 μg mL^−1 of rAtPNP-A protein for 20 min at room temperature. In each treatment, 50 randomly selected protoplasts with diameter >20 μm were included in quantitative analysis (scale bar = 20 μm). Protoplast volume was measured, and the data obtained from an exemplar experiment are plotted. […]
Biological activity of the synthetic peptides was verified in mesophyll cell protoplast (MCP) volume assay. […] Data are expressed as mean ± SD, and statistical analyses of one-way ANOVA followed by Tukey-Kramer multiple comparison test were performed using Prism 8.0 (GraphPad Software, San Diego, CA, USA).

The target in a further assay is T1, recombinant RCA (rRCA) (Arabidopsis thaliana, UniProt P10896).
T1 construct: made in house; host or cells: E. coli BL21 (DE3) One Shot
T1 sequence (P10896 whole entry, looked up): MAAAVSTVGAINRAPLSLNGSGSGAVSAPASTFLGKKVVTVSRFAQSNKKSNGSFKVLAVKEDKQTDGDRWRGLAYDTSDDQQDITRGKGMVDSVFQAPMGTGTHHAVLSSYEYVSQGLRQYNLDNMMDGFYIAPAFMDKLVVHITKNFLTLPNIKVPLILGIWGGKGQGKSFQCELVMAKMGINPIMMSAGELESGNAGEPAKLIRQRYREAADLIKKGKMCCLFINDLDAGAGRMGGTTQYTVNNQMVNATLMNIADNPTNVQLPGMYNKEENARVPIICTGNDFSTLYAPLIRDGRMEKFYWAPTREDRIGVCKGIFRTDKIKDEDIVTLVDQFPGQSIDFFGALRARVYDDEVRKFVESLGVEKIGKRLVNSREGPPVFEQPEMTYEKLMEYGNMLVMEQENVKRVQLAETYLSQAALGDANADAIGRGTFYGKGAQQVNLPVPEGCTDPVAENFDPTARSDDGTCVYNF
Kind of assay: SPR, rAtPNP-A analyte over immobilized rRCA (CM5 chip). In kind it is binding. Particulars: for SPR binding to rRCA: rRCA amine-coupled on CM5 chip, rAtPNP-A as analyte, 20 °C, Biacore T100. As for the experimental part: SPR experiments were performed at 20 °C on a Biacore T100 instrument (GE Healthcare LifeSciences) with the use of Series S CM5 […] sensor chips as previously described. Data were acquired with Biacore T100 control software (version 2.0.2, GE Healthcare LifeSciences, Chicago, IL, USA). Kinetic analyses were performed at the flow of 100 μL min^−1 with pAtPNP-A (at 3.78 μM and consecutive two-fold dilutions; 11 injections included) […], whereas recombinant His-tagged RCA was used as […] immobilized on the active surface of the series S CM5 sensor chip with amine coupling kit. The surface was regenerated with glycine solution, pH 2.0 (GE Healthcare LifeSciences). The final sensorgram was generated with Scrubber (BioLogic Software Pty Ltd., Campbell, Australia).
Figure 2 AtPNP-A directly interacts with Arabidopsis RCA in vitro. (a) Molecular docking of AtPNP-A and RCA monomer. Surface model depicts predicted docking of AtPNP-A (blue), with its active region (cyan), and RCA (tan). The structure of AtPNP-A was predicted using the iterative threading assembly refinement (I-TASSER; version 5.1) method, while the 4W5W crystal structure of A. thaliana RCA [33] was derived from RCSB PDB. Protein—protein docking was performed using ClusPro). The models were analyzed and visualized using UCSF Chimera (version 1.10.2). (b) Recombinant protein preparations used in SPR analyses. (c) Exemplar sensorgrams depicting referenced binding response of the recombinant RCA and AtPNP-A proteins.
For orientation: Surface plasmon resonance follows binding to a sensor surface in real time, without labels.

The test system of another assay is Rubisco activase (RCA). Kind of assay: Affinity isolation with LC-MS/MS. The assay is classed as binding, Arabidopsis thaliana. As to conditions: pAtPNP-A bait vs pScr control. On the procedure: Isolation of putative interactors of AtPNP-A was performed as described previously with minor modifications. For each sample, 5 g of plant material was used, no cross-linker was applied, the supernatant was incubated either with the N-terminally biotinylated pAtPNP-A or pScr (negative control) for 15 min. The protein extract mixture was incubated with Dynabeads M-280 (Life Technologies, Singapore) for 30 min. Eluted proteins were separated by SDS-PAGE (10% gels run for 15 min at 100V) and bands visualized with Coomassie Brilliant Blue (Figure S1). Bands were excised for trypsin in-gel digestion of proteins. MS analyses were performed on linear trap quadrupole (LTQ) Orbitrap Velos mass spectrometer (Thermo Scientific, Waltham, MA, USA) under conditions previously described. Scaffold version 4.11.1 (Proteome Software Inc.) was used to validate MS/MS based peptide and protein identification. […] Relative quantification of total spectrum counts of proteins identified with a confidence level of at least 99% at FDR < 0.1 in each sample containing pAtPNP-A or pScr (negative control) from three independent experiments was performed using Scaffold. […] The quantification file as well as the raw data are available via ProteomeXchange with identifier PXD023216, and the MS information is integrated in Supplementary Tables S1–S6.

A further assay relates to plant leaves. Details: method as in 2 sources, ref 13, 20 = [13]; PMID 21550130; doi:10.1016/j.jplph.2011.03.011; 13. Ruzvidzo O. Donaldson L. Valentine A. Gehring C. The Arabidopsis thaliana natriuretic peptide AtPNP-A is a systemic regulator of leaf dark respiration and signals via the phloem J. Plant Physiol. || [20]; PMID 19015524; doi:10.1073/pnas.0810107105; 20. Gottig N. Garavaglia B.S. Daurelio L. Valentine A.J. Gehring C. Orellano E.G. Ottado J. Xanthomonas axonopodis pv. citri uses a plant natriuretic peptide-like protein to modify host homeostasis Pr ||| ref 20 = [20]; PMID 19015524; doi:10.1073/pnas.0810107105; 20. Gottig N. Garavaglia B.S. Daurelio L. Valentine A.J. Gehring C. Orellano E.G. Ottado J. Xanthomonas axonopodis pv. citri uses a plant natriuretic peptide-like protein to modify host homeostasis Pr. As to conditions: cited from earlier work. The text has this:
In the host–pathogens ‘arms race’, bacteria may acquire ‘eukaryotic-like’ genes from their hosts through horizontal gene transfer. […] Tobacco (Nicotiana tabacum) RCA gene is involved in resistance to herbivory, and its down-regulation impaired JA signaling and led to reduced defense against both generalist (Spodoptera littoralis) and specialist (Manduca sexta) herbivore elicitation ...

The subject of another assay is Pst DC3000. Details: method as in PMID 32409317. As to conditions: exogenous application; cited from earlier work. The text has this: Tobacco (Nicotiana tabacum) RCA gene is involved in resistance to herbivory, and its down-regulation impaired JA signaling and led to reduced defense against both generalist (Spodoptera littoralis) and specialist (Manduca sexta) herbivore elicitation ...

The subject of a further assay is RCA. As to conditions: Yeast Two-Hybrid, AtPNP-A lacking the signal peptide; cited from earlier work.

B1: rAtPNP-A: purified N-terminally His-tagged AtPNP-A protein (protein)
chain: AQGKAVYYDPPYTRSACYGTQRETLVVGVKNNLWQNGRACGRRYRVRCIGATYNFDRACTGRTVDVKVVDFCREPCNGDLNLSRDAFRVIANTDAGNIRVVYTPI
modifications: left off: His6, N-terminal, kept
notes: purified N-terminally His-tagged AtPNP-A protein
As to B1, the “Effect on protoplast volume” value in assay [1] was “protoplast volume increase”. Moreover, in the assay with recombinant RCA (rRCA) (full-length recombinant AtPNP-A, SPR), the “SPR binding to RCA (abstract, in words)” value is “bind specifically to RCA”. Further, the “SPR binding to rRCA” value with recombinant RCA (rRCA) is reported as “bound to the rRCA protein immobilized on the active surface”; with recombinant RCA (rRCA) (listed as recombinant AtPNP-A) it was “confirmed by us in vitro”.

B2: AtPNP-A: Arabidopsis thaliana PNP, termed AtPNP-A (At2g18660; Q9ZV52) (protein)
chain: B1 chain
modifications: left off: His6, N-terminal, kept
B2: in the assay on Rubisco activase (RCA), the “Identification of RCA as interactor” value is reported as “identified with high confidence”. Further, the “Leaf photosynthetic rates and apparent photon yield” value in the assay with plant leaves was “modulate leaf photosynthetic rates and apparent photon yield”. Further, in the assay with plant leaves (treatment of plant leaves), the “Leaf dark respiration rates” value is on record as “triggers increase in leaf dark respiration rates”; the “Leaf photosynthetic rates and efficiency of light utilization” value is “regulates leaf photosynthetic rates and efficiency of light utilization during photosynthetic CO2 fixation”; the Leaf transpiration rates entry is given as “higher leaf transpiration rates”; the “Starch in guard cell chloroplasts” value is given as “induces starch reduction in guard cell chloroplasts”. In the assay with plant leaves (treatment of plant leaves), the “Stomatal conductance and stomatal opening” value was “increases stomatal conductance and stomatal opening”. Moreover, the “Susceptibility to Pst DC3000” value with Pst DC3000 was “enhanced susceptibility to Pst DC3000”. Besides, the “Interaction with RCA” value in the assay with RCA is given as “strong interactor”.
